Laboratory results: patent US20260092115A1 (Chugai, published 2026)

T1: human FcγRIIa, type R, extracellular domain, His-tagged (human, UniProt P12318 34-217)
T1 construct: extracellular domain; also called hFcγR IIa R
T1 sequence (looked up): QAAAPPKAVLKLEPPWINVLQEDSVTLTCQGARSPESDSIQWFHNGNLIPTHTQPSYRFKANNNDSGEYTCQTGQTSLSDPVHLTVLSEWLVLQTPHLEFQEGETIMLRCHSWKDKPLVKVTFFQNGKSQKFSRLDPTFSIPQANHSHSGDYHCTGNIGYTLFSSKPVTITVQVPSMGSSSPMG

T2: human FcγRIIa, type H, extracellular domain, His-tagged (human, UniProt P12318 34-217)
T2 construct: extracellular domain; also called hFcγR IIa H
T2 sequence (looked up): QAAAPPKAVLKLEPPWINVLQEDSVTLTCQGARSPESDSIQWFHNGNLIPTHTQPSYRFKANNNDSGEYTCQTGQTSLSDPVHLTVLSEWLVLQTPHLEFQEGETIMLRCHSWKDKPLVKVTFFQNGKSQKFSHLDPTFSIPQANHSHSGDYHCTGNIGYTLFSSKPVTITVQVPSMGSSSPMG

T3: human FcγRIIb extracellular domain, His-tagged (human, UniProt P31994 43-217)
T3 construct: extracellular domain; also called hFcγR IIb
T3 sequence (looked up): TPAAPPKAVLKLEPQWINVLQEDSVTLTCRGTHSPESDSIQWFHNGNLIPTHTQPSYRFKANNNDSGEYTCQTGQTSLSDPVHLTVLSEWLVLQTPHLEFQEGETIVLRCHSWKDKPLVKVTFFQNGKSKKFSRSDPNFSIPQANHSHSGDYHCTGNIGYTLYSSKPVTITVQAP

B1: 04H1654-KT473/04L1610-lam1//04H1656-HT482/04L1610-lam1 (antibody, IgG1)
heavy 1: QVQLVESGGGVVQPGGSLRLSCAASGFTFSSKTMNWVRQAPGKGLEWVSSISTQSHYIYYARSVRGRFTISRDNAKNSLYLQMNSLRAEDTAVYYCARYGKREDMLWVFDYWGQGTLVTVSSASTKGPSVFPLAPSSKSTSGGTAALGCLVKDYFPEPVTVSWNSGALTSGVHTFPAVLQSSGLYSLSSVVTVPSSSLGTQTYICNVNHKPSNTKVDKRVEPKSCDKTHTCPPCPAPEFQWGPMVFLFPPKPKDVLMISRTPEVTCVVVDVSDEEPEVKFNWYVDGVEVHNAKTKPREEQYNATYRVVSVLPVLHQDWLNGKEYKCKVSNDALPAPIEKTISKAKGQPREPQVYTLPPSRKEMTKNQVSLTCLVKGFYPSDIAVEWESNGQPENNYKTTPPVLDSDGSFFLYSKLTVDKSRWQQGNVFSCSVMHEALHAHTTRKELSLSP
heavy 2: QVQLVESGGGVVQPGGSLRLSCAASGFTFSSKTMNWVRQAPGKGLEWVSSISTQSHYIYYAESVRGRFTISRDNAKNSLYLQMNSLRAEDTAVYYCARYGAREDMLWVFDYWGQGTLVTVSSASTKGPSVFPLAPSSKSTSGGTAALGCLVKDYFPEPVTVSWNSGALTSGVHTFPAVLQSSGLYSLSSVVTVPSSSLGTQTYICNVNHKPSNTKVDKRVEPKSCDKTHTCPPCPAPELLAGPSVFLFPPKPKDVLMISRTPEVTCVVVDVSHEEPEVKFNWYVDGVEVHNAKTKPREEQYNATYRVVSVLPVLHQDWLNGKEYKCKVSNDALPKPDEETISKAKGQPREPQVYTLPPSREEMTKNQVSLTCLVKGFYPSDIAVEWESNGQPENNYKTTPPVLDSDGSFFLYSKLTVDKSRWQQGNVFSCSVMHEALHAHTTREELSLSP
light: QSALTQPPSASGSPGQSVTISCEGPSTGVGDYNWVHWYQQHPGKAPKLMIYFTSKKPSGVPDRFSGSKSGNTASLTVSGLQAEDEADYYCQTYAAPLGPMFGGGTKLTVLGQPKAAPSVTLFPPSSEELQANKATLVCLISDFYPGAVTVAWKADSSPVKAGVETTTPSKQSNNKYAASSYLSLTPEQWKSHRSYSCQVTHEGSTVEKTVAPTECS
notes: Heterodimerized IgG1 Fc variant with N434A/Y436T/Q438R/S440E; also called SW1610-ART6+ACT1
B2: 04H1654-KT481/04L1610-lam1//04H1656-HT498/04L1610-lam1 (antibody, IgG1)
heavy 1: QVQLVESGGGVVQPGGSLRLSCAASGFTFSSKTMNWVRQAPGKGLEWVSSISTQSHYIYYARSVRGRFTISRDNAKNSLYLQMNSLRAEDTAVYYCARYGKREDMLWVFDYWGQGTLVTVSSASTKGPSVFPLAPSSKSTSGGTAALGCLVKDYFPEPVTVSWNSGALTSGVHTFPAVLQSSGLYSLSSVVTVPSSSLGTQTYICNVNHKPSNTKVDKRVEPKSCDKTHTCPPCPAPEFQWGPMVFLFPPKPKDVLMISRTPEVTCVVVDVSDEEPEVKFNWYVDGVEVHNAKTKPREEQYNATYRVVSVLPVLHQDWLNGKEYKCKVSNDALPAPEEKTISKAKGQPREPQVYTLPPSRKEMTKNQVSLTCLVKGFYPSDIAVEWESNGQPENNYKTTPPVLDSDGSFFLYSKLTVDKSRWQQGNVFSCSVMHEALHAHTTRKELSLSP
heavy 2: QVQLVESGGGVVQPGGSLRLSCAASGFTFSSKTMNWVRQAPGKGLEWVSSISTQSHYIYYAESVRGRFTISRDNAKNSLYLQMNSLRAEDTAVYYCARYGAREDMLWVFDYWGQGTLVTVSSASTKGPSVFPLAPSSKSTSGGTAALGCLVKDYFPEPVTVSWNSGALTSGVHTFPAVLQSSGLYSLSSVVTVPSSSLGTQTYICNVNHKPSNTKVDKRVEPKSCDKTHTCPPCPAPELLAGPSVFLFPPKPKDVLMISRTPEVTCVVVDVSHEEPEVKFNWYVDGVEVHNAKTKPREEQYNATYRVVSVLPVLHQDWLNGKEYKCKVSNDALPAPEEETISKAKGQPREPQVYTLPPSREEMTKNQVSLTCLVKGFYPSDIAVEWESNGQPENNYKTTPPVLDSDGSFFLYSKLTVDKSRWQQGNVFSCSVMHEALHAHTTREELSLSP
light: QSALTQPPSASGSPGQSVTISCEGPSTGVGDYNWVHWYQQHPGKAPKLMIYFTSKKPSGVPDRFSGSKSGNTASLTVSGLQAEDEADYYCQTYAAPLGPMFGGGTKLTVLGQPKAAPSVTLFPPSSEELQANKATLVCLISDFYPGAVTVAWKADSSPVKAGVETTTPSKQSNNKYAASSYLSLTPEQWKSHRSYSCQVTHEGSTVEKTVAPTECS
notes: Heterodimerized IgG1 Fc variant with N434A/Y436T/Q438R/S440E
B3: 04H1654-KT473/04L1612-lam1//04H1656-HT482/04L1612-lam1 (antibody, IgG1)
heavy 1: QVQLVESGGGVVQPGGSLRLSCAASGFTFSSKTMNWVRQAPGKGLEWVSSISTQSHYIYYARSVRGRFTISRDNAKNSLYLQMNSLRAEDTAVYYCARYGKREDMLWVFDYWGQGTLVTVSSASTKGPSVFPLAPSSKSTSGGTAALGCLVKDYFPEPVTVSWNSGALTSGVHTFPAVLQSSGLYSLSSVVTVPSSSLGTQTYICNVNHKPSNTKVDKRVEPKSCDKTHTCPPCPAPEFQWGPMVFLFPPKPKDVLMISRTPEVTCVVVDVSDEEPEVKFNWYVDGVEVHNAKTKPREEQYNATYRVVSVLPVLHQDWLNGKEYKCKVSNDALPAPIEKTISKAKGQPREPQVYTLPPSRKEMTKNQVSLTCLVKGFYPSDIAVEWESNGQPENNYKTTPPVLDSDGSFFLYSKLTVDKSRWQQGNVFSCSVMHEALHAHTTRKELSLSP
heavy 2: QVQLVESGGGVVQPGGSLRLSCAASGFTFSSKTMNWVRQAPGKGLEWVSSISTQSHYIYYAESVRGRFTISRDNAKNSLYLQMNSLRAEDTAVYYCARYGAREDMLWVFDYWGQGTLVTVSSASTKGPSVFPLAPSSKSTSGGTAALGCLVKDYFPEPVTVSWNSGALTSGVHTFPAVLQSSGLYSLSSVVTVPSSSLGTQTYICNVNHKPSNTKVDKRVEPKSCDKTHTCPPCPAPELLAGPSVFLFPPKPKDVLMISRTPEVTCVVVDVSHEEPEVKFNWYVDGVEVHNAKTKPREEQYNATYRVVSVLPVLHQDWLNGKEYKCKVSNDALPKPDEETISKAKGQPREPQVYTLPPSREEMTKNQVSLTCLVKGFYPSDIAVEWESNGQPENNYKTTPPVLDSDGSFFLYSKLTVDKSRWQQGNVFSCSVMHEALHAHTTREELSLSP
light: QSALTQPPSASGSPGQSVTISCEGPSTGVGDYTYVHWYQQHPGKAPKLMIYFTSKKPSGVPDRFSGSKSGNTASLTVSGLQAEDEADYYCQTYAAPLGPMFGGGTKLTVLGQPKAAPSVTLFPPSSEELQANKATLVCLISDFYPGAVTVAWKADSSPVKAGVETTTPSKQSNNKYAASSYLSLTPEQWKSHRSYSCQVTHEGSTVEKTVAPTECS
notes: as for B2

Experiments:
[1] = molecular target: T4, human FcγRIa extracellular domain, His-tagged (human, UniProt P12314 16-292); experiment: KD of 04H1637-G1m/04L1610-lam1 divided by KD of this antibody; SPR pH 7.4
T4 construct: also called hFcγR Ia

[2] = molecular target: T5, human FcγRIIIa, allotype F158, extracellular domain, His-tagged (human, UniProt P08637 17-208); experiment: as above
T5 construct: extracellular domain; also called hFcγR IIIa F

[3] = molecular target: T6, human FcγRIIIa, allotype V158, extracellular domain, His-tagged (human, UniProt P08637 17-208); experiment: as above
T6 construct: extracellular domain; also called hFcγR IIIa V

[4] = molecular target: T1, human FcγRIIa, type R, extracellular …; experiment: as above
[5] = molecular target: T2, human FcγRIIa, type H, extracellular …; experiment: as above
[6] = molecular target: T3, human FcγRIIb extracellular domain, …; experiment: binding amount of this antibody divided by that of 04H1637-G1m/04L1610-lam1; SPR pH 7.4
[7] = molecular target: T3, human FcγRIIb extracellular domain, …; experiment: SPR Biacore T200, 25C, pH 7.4; FcγRIIb at 1000 nM, corrected by captured antibody
Procedure, shortened: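 Antibodies captured via anti-Fab-lambda on SA chip; FcγRs flowed in 50 mM Na-phosphate, 150 mM NaCl, 0.05% Tween20, pH 7.4, 25° C. KD by 1:1 Langmuir (FcγRIa, FcγRIIIa) or steady-state model (FcγRIIa); FcγRIIb binding normalised to captured antibody amount.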

human FcRn = molecular target: T7, human FcRn (human, UniProt P55899 24-290; P61769 21-119); experiment: KD of 04H1637-G1m/04L1610-lam1 divided by KD of this antibody; SPR pH 6.0
T7 construct: Prepared by the method of WO 2010/107110; also called hFcRn
Method: The interaction between the generated antibodies and human FcRn was analyzed by the following method using Biacore T200. 50 mM Na-Phosphate, 150 mM NaCl, 0.05% Tween20 (pH 6.0) was used as the running buffer, and the assay was performed at 25° C. For the sensor chip, Series S SA (GE Healthcare) chips onto which CaptureSelect Human Fab-lambda Kinetics Biotin Conjugate (Thermo Fisher Scientific) was immobilized were used. The antibodies of interest were captured onto these chips and FcRn diluted in the running buffer was allowed to interact with them. Chips were regenerated with 10 mM Glycine-HCl (pH 1.5) and 25 mM NaOH, and assay was performed by repeatedly capturing antibodies. The dissociation constant for FcRn of each antibody was calculated using the steady state model, using Biacore T200 Evaluation Software 2.0.
“Relative value to KD between G1m and hFcRn” and “Relative value to KD between G1m and hFcγRs” are values obtained by dividing the KD value of 04H1637-G1m/04L1610-lam1 for hFcRn and for each FcγR by the KD value of each variant, respectively. “Relative binding amount” indicates the value obtained by dividing the binding amount of each variant to FcγRIIb by the binding amount of 04H1637-G1m/04L1610-lam1. […] It was shown that all of the generated heterodimerized antibodies had enhanced binding to FcγRIIa and FcγRIIIa as compared with 04H1637-G1m/04L1610-lam1 which has the constant region of native human IgG1. Furthermore, 04H1637-Kn462/04L1610-lam1//04H1637-H1441/04L1610-lam1, 04H1637-Kn462/04L1610-lam1//04H1637-H1445/04L1610-lam1, and 04H1637-Kn461/04L1610-lam1//04H1637-H1443/04L1610-lam1 were all shown to have enhanced binding to FcγRIIa compared to 04H1637-Kn125/04L1610-lam1//04H1637-H1076/04L1610-lam 1 which has the Fc region variant reported in WO 2013/002362.

T4 sequence (P12314 16-292): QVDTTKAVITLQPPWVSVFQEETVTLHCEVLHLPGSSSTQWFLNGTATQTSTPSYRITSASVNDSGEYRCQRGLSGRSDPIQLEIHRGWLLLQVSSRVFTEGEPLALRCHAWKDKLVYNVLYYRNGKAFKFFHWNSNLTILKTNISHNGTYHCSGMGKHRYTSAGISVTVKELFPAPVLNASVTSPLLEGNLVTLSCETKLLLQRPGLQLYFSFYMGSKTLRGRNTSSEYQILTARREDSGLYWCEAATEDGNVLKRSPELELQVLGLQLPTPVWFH
T6 sequence (P08637 17-208 F176V): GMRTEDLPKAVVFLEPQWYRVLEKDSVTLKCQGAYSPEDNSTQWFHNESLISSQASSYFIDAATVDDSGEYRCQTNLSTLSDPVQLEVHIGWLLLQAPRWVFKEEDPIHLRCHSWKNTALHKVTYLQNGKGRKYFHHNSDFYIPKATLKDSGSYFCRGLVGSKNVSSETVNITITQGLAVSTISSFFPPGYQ
T5 sequence (P08637 17-208): as the sequence (P08637 17-208 F176V) above, with V160F counted along it
T7 sequence (P55899 24-290 limits assumed, chain 1 of 2): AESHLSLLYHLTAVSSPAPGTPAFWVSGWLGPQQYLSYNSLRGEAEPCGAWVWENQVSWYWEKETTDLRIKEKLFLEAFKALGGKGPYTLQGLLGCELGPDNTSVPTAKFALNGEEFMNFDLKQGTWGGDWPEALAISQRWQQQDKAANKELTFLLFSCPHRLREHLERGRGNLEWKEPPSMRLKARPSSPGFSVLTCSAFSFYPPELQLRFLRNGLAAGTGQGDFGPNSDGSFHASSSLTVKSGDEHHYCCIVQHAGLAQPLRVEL
T7 sequence (P61769 21-119 limits assumed, chain 2 of 2): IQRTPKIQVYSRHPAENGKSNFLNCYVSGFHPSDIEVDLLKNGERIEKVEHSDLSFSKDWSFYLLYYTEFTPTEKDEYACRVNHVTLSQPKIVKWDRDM

Binder | Relative value to KD between G1m and hFcγRs [1] | Relative value to KD between G1m and hFcγRs [2] | Relative value to KD between G1m and hFcγRs [3] | Relative value to KD between G1m and hFcγRs [4] | Relative value to KD between G1m and hFcγRs [5] | Relative binding amount [6] | Binding amount [7] | Relative value to KD between G1m and hFcRn (human FcRn)
B1 | 1.1 ratio | 363 ratio | 115 ratio | 13.9 ratio | 18 ratio | 3.2 ratio | 0.026 RU per RU of captured antibody | 2.3 ratio
B2 | 1.5 ratio | 495 ratio | 152 ratio | 7.7 ratio | 6.5 ratio | 2.7 ratio | 0.022 RU per RU of captured antibody | 2.3 ratio
B3 | 1 ratio | 355 ratio | 110 ratio | 13.8 ratio | 16.2 ratio | 3.2 ratio | 0.026 RU per RU of captured antibody | 2.1 ratio
